Assay results reported in patent US20220056087A1 (GLIKNIK, published 2022).
Each block holds one binder with its values, some of them ahead of it.

B8: mouse IgG2a Fc homodimers (other, UniProt P01863 98-330, looked up)
chain: EPRGPTIKPCPPCKCPAPNLLGGPSVFIFPPKIKDVLMISLSPIVTCVVVDVSEDDPDVQISWFVNNVEVHTAQTQTHREDYNSTLRVVSALPIQHQDWMSGKEFKCKVNNKDLPAPIERTISKPKGSVRAPQVYVLPPPEEEMTKKQVTLTCMVTDFMPEDIYVEWTNNGKTELNYKNTEPVLDSDGSYFMYSKLRVEKKNWVERNSYSCSVVHEGLHNHHTTKSFSRTPGK
notes: domain: Fc; also called IgG2a controls; IgG2a Fc control
B10: mouse FcγRIIB (immobilized on CM4 chip) (receptor, UniProt P08101 30-207, looked up)
chain: THDLPKAVVKLEPPWIQVLKEDTVTLTCEGTHNPGNSSTQWFHNGRSIRSQVQASYTFKATVNDSGEYRCQMEQTRLSDPVDLGVISDWLLLQTPQLVFLEGETITLRCHSWRNKLLNRISFFHNEKSVRYHHYSSNFSIPKANHSHSGDYYCKGSLGRTLHQSKPVTITVQGPKSSR
notes: also called mouse FcγR2b
B12: mouse FcγRIIIA (immobilized on CM4 chip) (receptor, UniProt P08508 31-215, looked up)
chain: ALPKAVVKLDPPWIQVLKEDMVTLMCEGTHNPGNSSTQWFHNGRSIRSQVQASYTFKATVNDSGEYRCQMEQTRLSDPVDLGVISDWLLLQTPQRVFLEGETITLRCHSWRNKLLNRISFFHNEKSVRYHHYKSNFSIPKANHSHSGDYYCKGSLGSTQHQSKPVTITVQDPATTSSISLVWYHT
notes: also called mouse FcγR3A

Tests used:
[1] = molecular target: T1, mouse SIGN-R1 (immobilized on CM4 chip) (mouse, UniProt Q8CJ91 74-325, limits assumed); experiment: SPR (Biacore) as in Example 4, SIGN-R1 on the chip
T1 sequence (looked up): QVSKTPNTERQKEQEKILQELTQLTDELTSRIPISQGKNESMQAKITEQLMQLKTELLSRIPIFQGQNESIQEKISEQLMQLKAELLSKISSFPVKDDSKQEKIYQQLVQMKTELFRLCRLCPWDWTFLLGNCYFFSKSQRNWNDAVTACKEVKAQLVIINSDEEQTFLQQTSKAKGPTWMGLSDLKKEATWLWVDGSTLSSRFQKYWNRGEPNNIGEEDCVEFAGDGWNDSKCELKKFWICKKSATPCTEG
Protocol: (§1) FcγRIIIA, FcγRIIB and SIGN-R1 receptors were immobilized to a CM4 chip using amine immobilization to 560, 500, and 1000RU, respectively to compensate for protein size.
(§2) Regeneration was achieved by a 10 sec injection of 1M MgCl at 100 ul/min, followed by a brief wash with running buffer. KDs were calculated using T100 evaluation software.
(§3) M045F was first gel fractionated using an AktaXpress protein purification system and a GE HiLoad 16/60 Superdex 200 prep grade column.

[2] = molecular target: B12; experiment: SPR (Biacore), receptor amine-coupled to a CM4 chip, analyte 500 nM to 1.9 nM; panel 'Mse FcR3A'
Protocol: as §1, §2

[3] = molecular target: T1, mouse SIGN-R1 (immobilized on CM4 chip); experiment: SPR (Biacore) as in Example 4, SIGN-R1 on the chip; the sheet itself says the value cannot be accurately calculated; traces nearly flat
Protocol: as §1, §2, §3

[4] = molecular target: T2, G001 (native IgG1 Fc) (human, UniProt P01857-1 99-330 = IgG part); experiment: BLI (Octet 96 Red), receptor on sensor, G001 in solution
T2 construct: domain: Fc; also called IgG1 Fc control; homodimeric monomer of IgG1 Fc
Protocol: For binding analysis of mouse protein, His-tagged mouse FcγRII (R&D system cat #1460-CD) and FcγRIII R&D system cat #1960) were separately loaded on anti-penta-His Biosensors (ForteBio cat #18-5077) at 10 ug/ml in 1× kinetic analysis buffer (ForteBio cat #18-5032). For binding analysis of human protein, His-tagged human FcγRIIb (R&D system cat #1875-CD) and FcγRIIIa R&D system cat #4325-Fc) were separately loaded on anti-penta-His Biosensors (ForteBio cat #18-5077) at 10 ug/ml in 1× kinetic analysis buffer (ForteBio cat #18-5032). Following sensor tip loading protein association was measured by transfer of tips to preparations of either monomeric fraction (over a range of concentrations) or the multimeric fractions (over a range of concentrations) in 1× kinetics analysis buffer and dissociation was measured by transfer of sensor tips to 1× kinetics buffer. Analysis was as described (Data Analysis User Guide 6.4ForteBio). Analysis was standardized as described above assigning a MW of 50 kD to homodimers and 150 kD to all other protein preparations.

[5] = molecular target: T1, mouse SIGN-R1 (immobilized on CM4 chip); experiment: SPR (Biacore) as in Example 4, SIGN-R1 on the chip; the sheet itself says the value cannot be accurately calculated; traces flat
Protocol: as §1, §2, §3

[6] = molecular target: T1, mouse SIGN-R1 (immobilized on CM4 chip); experiment: SPR (Biacore), receptor amine-coupled to a CM4 chip, analyte 500 nM to 1.9 nM; panel 'Mse SIGN-R1'
Protocol: as §1, §2

[7] = molecular target: B10; experiment: SPR (Biacore), receptor amine-coupled to a CM4 chip, analyte 500 nM to 1.9 nM; panel 'Mse FcR2B'
Protocol: as §1, §2

[8] = molecular target: B8; experiment: SPR (Biacore), receptor amine-coupled to a CM4 chip; panel 'Mse FcR2B'
Protocol: as §1, §2

[9] = molecular target: B8; experiment: SPR (Biacore), receptor amine-coupled to a CM4 chip; panel 'Mse FcR3A'
Protocol: as §1, §2

Kd [1]: 638 nM
Kd [2]: 18.7 nM
B1: M028 stradomer (Fc fusion)
chain: SIKQIEDKIEEILSKIYHIENEIARIKKLIGERGEPRGPTIKPCPPCKCPAPNLLGGPSVFIFPPKIKDVLMISLSPIVTCVVVDVSEDDPDVQISWFVNNVEVHTAQTQTHREDYNSTLRVVSALPIQHQDWMSGKEFKCKVNNKDLPAPIERTISKPKGSVRAPQVYVLPPPEEEMTKKQVTLTCMVTDFMPEDIYVEWTNNGKTELNYKNTEPVLDSDGSYFMYSKLRVEKKNWVERNSYSCSVVHEGLHNHHTTKSFSRTPGK
notes: Murine counterpart of G028 (N-terminal isoleucine zipper); The entry may include a leader

Kd [1]: 334 nM
B2: M045c stradomer (Fc fusion)
chain: DEPRGPTIKPCPPCKCPAPNLLGGPSVFIFPPKIKDVLMISLSPIVTCVVVDVSEDDPDVQISWFVNNVEVHTAQTQTHREDYNSTLRVVSALPIQHQDWMSGKEFKCKVNNKDLPAPIERTISKPKGSVRAPQVYVLPPPEEEMTKKQVTLTCMVTDFMPEDIYVEWTNNGKTELNYKNTEPVLDSDGSYFMYSKLRVEKKNWVERNSYSCSVVHEGLHNHHTTKSFSRTPGKERKCCVECPPCP
notes: Murine counterpart of G045c; The entry may include a leader that is cleaved from the secreted protein; Mix of homodimers and multimers

Kd [1]: 91.2 nM
B3: M045 F2 (Fc fusion)
stradomer monomer: DEPRGPTIKPCPPCKCPAPNLLGGPSVFIFPPKIKDVLMISLSPIVTCVVVDVSEDDPDVQISWFVNNVEVHTAQTQTHREDYNSTLRVVSALPIQHQDWMSGKEFKCKVNNKDLPAPIERTISKPKGSVRAPQVYVLPPPEEEMTKKQVTLTCMVTDFMPEDIYVEWTNNGKTELNYKNTEPVLDSDGSYFMYSKLRVEKKNWVERNSYSCSVVHEGLHNHHTTKSFSRTPGKERKCCVECPPCP
notes: also called lower molecular weight multimer fraction of M045

Kd [1]: 90.9 nM
B4: M045 F1 (highest molecular weight multimer fraction of M045c) (Fc fusion)
chain: DEPRGPTIKPCPPCKCPAPNLLGGPSVFIFPPKIKDVLMISLSPIVTCVVVDVSEDDPDVQISWFVNNVEVHTAQTQTHREDYNSTLRVVSALPIQHQDWMSGKEFKCKVNNKDLPAPIERTISKPKGSVRAPQVYVLPPPEEEMTKKQVTLTCMVTDFMPEDIYVEWTNNGKTELNYKNTEPVLDSDGSYFMYSKLRVEKKNWVERNSYSCSVVHEGLHNHHTTKSFSRTPGKERKCCVECPPCP
notes: The entry may include a leader; also called Fraction 1; M045 Fraction 1

Kd [3]: 11000 nM
B5: M045 F3 (Fc fusion)
stradomer monomer: DEPRGPTIKPCPPCKCPAPNLLGGPSVFIFPPKIKDVLMISLSPIVTCVVVDVSEDDPDVQISWFVNNVEVHTAQTQTHREDYNSTLRVVSALPIQHQDWMSGKEFKCKVNNKDLPAPIERTISKPKGSVRAPQVYVLPPPEEEMTKKQVTLTCMVTDFMPEDIYVEWTNNGKTELNYKNTEPVLDSDGSYFMYSKLRVEKKNWVERNSYSCSVVHEGLHNHHTTKSFSRTPGKERKCCVECPPCP
notes: also called homodimer fraction of M045

Kd [4]: 1310 nM
B6: His-tagged human FcγRIIb (R&D system cat #1875-CD) (receptor, UniProt P31994 46-217, looked up)
chain: APPKAVLKLEPQWINVLQEDSVTLTCRGTHSPESDSIQWFHNGNLIPTHTQPSYRFKANNNDSGEYTCQTGQTSLSDPVHLTVLSEWLVLQTPHLEFQEGETIVLRCHSWKDKPLVKVTFFQNGKSKKFSRSDPNFSIPQANHSHSGDYHCTGNIGYTLYSSKPVTITVQAP
notes: Bought protein

Kd [4]: 2040 nM
B7: Cynomolgus FcγRIIb (receptor)
chain: TPAAPPKAVLKLEPPWINVLREDSVTLTCGGAHSPDSDSTQWFHNGNLIPTHTQPSYRFKANNNDSGEYRCQTGRTSLSDPVHLTVLSEWLALQTPHLEFREGETIMLRCHSWKDKPLIKVTFFQNGKSKKFSHMDPNFSIPQANHSHSGDYHCTGNIGYTPYSSKPVTITVQVP

Binder: B8
Kd [5]: 132 nM

binding result [6]: binds
Kd [7]: 45.3 nM
B9: M019 stradomer (Fc fusion)
chain: ERKCCVECPPCPEPRGPTIKPCPPCKCPAPNLLGGPSVFIFPPKIKDVLMISLSPIVTCVVVDVSEDDPDVQISWFVNNVEVHTAQTQTHREDYNSTLRVVSALPIQHQDWMSGKEFKCKVNNKDLPAPIERTISKPKGSVRAPQVYVLPPPEEEMTKKQVTLTCMVTDFMPEDIYVEWTNNGKTELNYKNTEPVLDSDGSYFMYSKLRVEKKNWVERNSYSCSVVHEGLHNHHTTKSFSRTPGK
notes: Murine counterpart of G019 (N-terminal IgG2 hinge multimerization domain); The entry may include a leader

Binder: B10
Kd [8]: 642 nM

Kd [4]: 1510 nM
B11: His-tagged mouse FcγRII (R&D system cat #1460-CD) (receptor, UniProt P08101 30-207, looked up)
chain: THDLPKAVVKLEPPWIQVLKEDTVTLTCEGTHNPGNSSTQWFHNGRSIRSQVQASYTFKATVNDSGEYRCQMEQTRLSDPVDLGVISDWLLLQTPQLVFLEGETITLRCHSWRNKLLNRISFFHNEKSVRYHHYSSNFSIPKANHSHSGDYYCKGSLGRTLHQSKPVTITVQGPKSSR
notes: Bought protein; also called Mouse FcγRIIb; Mouse FcyRII

Binder: B12
Kd [9]: 80.1 nM

Kd [4]: 4180 nM
B13: His-tagged mouse FcγRIII (R&D system cat #1960) (receptor, UniProt P08508 31-215, looked up)
chain: ALPKAVVKLDPPWIQVLKEDMVTLMCEGTHNPGNSSTQWFHNGRSIRSQVQASYTFKATVNDSGEYRCQMEQTRLSDPVDLGVISDWLLLQTPQRVFLEGETITLRCHSWRNKLLNRISFFHNEKSVRYHHYKSNFSIPKANHSHSGDYYCKGSLGSTQHQSKPVTITVQDPATTSSISLVWYHT
notes: Bought protein; also called Mouse FcyRIII

kon [4]: 124000 M⁻¹ s⁻¹
B14: Cynomolgus FcγRIIIa (receptor, UniProt Q8SPW2 17-208, looked up)
chain: GMRAEDLPKAVVFLEPQWYRVLEKDRVTLKCQGAYSPEDNSTRWFHNESLISSQTSSYFIAAARVNNSGEYRCQTSLSTLSDPVQLEVHIGWLLLQAPRWVFKEEESIHLRCHSWKNTLLHKVTYLQNGKGRKYFHQNSDFYIPKATLKDSGSYFCRGLIGSKNVSSETVNITITQDLAVSSISSFFPPGYQ
